# B1: SH3 domain-binding protein 4 (Homo sapiens), Q9P0V3 (parent)
# chain: MAAQRIRAANSNGLPRCKSEGTLIDLSEGFSETSFNDIKVPSPSALLVDNPTPFGNAKEVIAIKDYCPTNFTTLKFSKGDHLYVLDTSGGEWWYAHNTTEMGYIPSSYVQPLNYRNSTLSDSGMIDNLPDSPDEVAKELELLGGWTDDKKVPGRMYSNNPFWNGVQTNPFLNGNVPVMPSLDELNPKSTVDLLLFDAGTSSFTESSSATTNSTGNIFDELPVTNGLHAEPPVRRDNPFFRSKRSYSLSELSVLQAKSDAPTSSSFFTGLKSPAPEQFQSREDFRTAWLNHRKLARSCHDLDLLGQSPGWGQTQAVETNIVCKLDSSGGAVQLPDTSISIHVPEGHVAPGETQQISMKALLDPPLELNSDRSCSISPVLEVKLSNLEVKTSIILEMKVSAEIKNDLFSKSTVGLQCLRSDSKEGPYVSVPLNCSCGDTVQAQLHNLEPCMYVAVVAHGPSILYPSTVWDFINKKVTVGLYGPKHIHPSFKTVVTIFGHDCAPKTLLVSEVTRQAPNPAPVALQLWGKHQFVLSRPQDLKVCMFSNMTNYEVKASEQAKVVRGFQLKLGKVSRLIFPITSQNPNELSDFTLRVQVKDDQEAILTQFCVQTPQPPPKSAIKPSGQRRFLKKNEVGKIILSPFATTTKYPTFQDRPVSSLKFGKLLKTVVRQNKNHYLLEYKKGDGIALLSEERVRLRGQLWTKEWYIGYYQGRVGLVHTKNVLVVGRARPSLCSGPELSTSVLLEQILRPCKFLTYIYASVRTLLMENISSWRSFADALGYVNLPLTFFCRAELDSEPERVASVLEKLKEDCNNTENKERKSFQKELVMALLKMDCQGLVVRLIQDFVLLTTAVEVAQRWRELAEKLAKVSKQQMDAYESPHRDRNGVVDSEAMWKPAYDFLLTWSHQIGDSYRDVIQELHLGLDKMKNPITKRWKHLTGTLILVNSLDVLRAAAFSPADQDDFVI
# partner: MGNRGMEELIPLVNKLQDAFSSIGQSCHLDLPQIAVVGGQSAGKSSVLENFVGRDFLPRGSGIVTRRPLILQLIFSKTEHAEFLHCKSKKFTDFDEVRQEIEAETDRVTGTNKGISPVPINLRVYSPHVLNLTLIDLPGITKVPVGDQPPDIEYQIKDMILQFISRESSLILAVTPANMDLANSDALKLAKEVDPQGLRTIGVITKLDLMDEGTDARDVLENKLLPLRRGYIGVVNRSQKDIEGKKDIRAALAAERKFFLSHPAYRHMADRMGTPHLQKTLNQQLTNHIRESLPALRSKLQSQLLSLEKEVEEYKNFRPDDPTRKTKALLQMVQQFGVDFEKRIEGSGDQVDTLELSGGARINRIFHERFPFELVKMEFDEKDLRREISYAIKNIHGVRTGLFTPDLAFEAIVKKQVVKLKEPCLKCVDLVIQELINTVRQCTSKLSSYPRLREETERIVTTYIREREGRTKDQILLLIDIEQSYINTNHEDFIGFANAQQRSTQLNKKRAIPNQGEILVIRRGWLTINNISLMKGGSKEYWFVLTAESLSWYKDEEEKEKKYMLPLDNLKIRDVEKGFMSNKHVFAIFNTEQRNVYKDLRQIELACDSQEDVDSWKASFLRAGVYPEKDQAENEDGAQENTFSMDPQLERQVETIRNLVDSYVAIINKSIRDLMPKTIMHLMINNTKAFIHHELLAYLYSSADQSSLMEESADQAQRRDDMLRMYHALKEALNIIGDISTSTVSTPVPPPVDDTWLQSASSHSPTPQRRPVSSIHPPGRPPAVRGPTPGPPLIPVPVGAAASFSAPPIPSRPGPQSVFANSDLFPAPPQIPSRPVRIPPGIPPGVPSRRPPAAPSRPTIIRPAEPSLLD
# B2: SH3 domain-binding protein 4 (Homo sapiens), Q9P0V3 (parent)
# chain: B1 chain
# Variants of: B1
# Conditions: with dyn2_human DNM2, P50570
row,effect of a mutation on the interaction,Variant
1,disrupting interaction,W92A

# Variants of: B2
# Conditions: with tfr1_human TFRC
row,effect of a mutation on the interaction,Variant
1,disrupting interaction,W92A
